Source: FireProtDB (doi:10.1073/pnas.0910421107)

Conditions: Escherichia coli (strain K12), pH 7.6, Thermal, MOPS 25 mM, Potassium chloride 100 mM, whole UniProt chain shown

B1: Ribose import binding protein RbsB wild type, P02925 (protein)
chain: MNMKKLATLVSAVALSATVSANAMAKDTIALVVSTLNNPFFVSLKDGAQKEADKLGYNLVVLDSQNNPAKELANVQDLTVRGTKILLINPTDSDAVGNAVKMANQANIPVITLDRQATKGEVVSHIASDNVLGGKIAGDYIAKKAGEGAKVIELQGIAGTSAARERGEGFQQAVAAHKFNVLASQPADFDRIKGLNVMQNLLTAHPDVQAVFAQNDEMALGALRALQTAGKSDVMVVGFDGTPDGEKAVNDGKLAATIAQLPDQIGAKGVETADKVLKGEKVQAKYPVDLKLVVKQ
B1 gave a Tm (Activity) of 62.6 °C and a Tm (Quantitative cysteine reactivity) of 62.6 °C.
